Measured values from patent US20100322948A1, “Bone morphogenetic protein (BMP)-binding domains of proteins of the repulsive guidance molecule (RGM) protein family and functional fragments thereof, and use of same” (ABBOTT GMBH & CO. KG, priority 2007, published 2010).

T1: BMP-2 (Homo sapiens, UniProt P12643)
T1 construct: purchased R&D Systems 355-BM; host or cells: CHO cells (said of #355-BM in the BRE-Luc section)
T1 sequence (P12643 283-396): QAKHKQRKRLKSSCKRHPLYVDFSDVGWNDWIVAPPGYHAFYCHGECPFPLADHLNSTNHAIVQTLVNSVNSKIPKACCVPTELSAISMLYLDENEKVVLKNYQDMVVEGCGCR

T2: BMP-4 (Homo sapiens, UniProt P12644)
T2 construct: purchased R&D Systems 314-BM
T2 sequence (P12644 293-408): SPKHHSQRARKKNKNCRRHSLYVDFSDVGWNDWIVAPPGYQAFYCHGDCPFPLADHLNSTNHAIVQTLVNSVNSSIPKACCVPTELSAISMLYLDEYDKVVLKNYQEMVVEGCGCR

B1: Fragment 2 (Fc fusion)
RGM A fragment fused to Fc: IIFKNFQECVDQKVYQAEMDELPAAFVDGSKNGGDKHGANSLKITEKVSGQHVEIQAKYIGTTIVVR
notes: also called 218-284-Fc
B2: Recombinant human BMP-2 (ligand, UniProt P12643 283-396, looked up)
chain: T1 sequence (P12643 283-396)
notes: Bought protein; also called rhBMP-2; recombinant h BMP-2
B3: Recombinant human BMP-4 (ligand, UniProt P12644 293-408, looked up)
chain: T2 sequence (P12644 293-408)
notes: Bought protein; also called hBMP-4
B4: 47-168-Fc (#786) (Fc fusion)
chain: PCKILKCNSEFWSATSGSHAPASDDTPEFCAALRSYALCTRRTARTCRGDLAYHSAVHGIEDLMSQHNCSKDGPTSQPRLRTLPPAGDSQERSDSPEICHYEKSFHKHSATPNYTHCGLFGD
notes: Expressed in HEK293F cells; IgK leader left out; also called fragment 0; not shown: Factor Xa site from the vector; human IgG Fc (hIgG lambda hc 257-Stop)
B5: #789: 266-335 Fc 257 Stop no att (Fc fusion, human, UniProt Q96B86 266-335, looked up)
RGM A fragment fused to Fc: SGQHVEIQAKYIGTTIVVRQVGRYLTFAVRMPEEVVNAVEDWDSQGLYLCLRGCPLNQQIDFQAFHTNAE
notes: fragment; also called Fragment 3
B6: RGMA-Fc: RGM A Fc fusion protein used as comparison for the fragments (protein)
chain: PCKILKCNSEFWSATSGSHAPASDDTPEFCAALRSYALCTRRTARTCRGDLAYHSAVHGIEDLMSQHNCSKDGPTSQPRLRTLPPAGDSQERSDSPEICHYEKSFHKHSATPNYTHCGLFGDPHLRTFTDRFQTCKVQGAWPLIDNNYLNVQATNTPVLPGSAATATSKLTIIFKNFQECVDQKVYQAEMDELPAAFVDGSKNGGDKHGANSLKITEKVSGQHVEIQAKYIGTTIVVRQVGRYLTFAVRMPEEVVNAVEDWDSQGLYLCLRGCPLNQQIDFQAFHTNAEGTGARRLAAASPAPTAPETFPYETAVAKCKEKLPVEDLYYQACVFDLLTTGDVNFTLAAYYALEDVKMLHSNKDKLHLYERTRDLPG
modifications: left off: a dimerising Fc or GST
notes: RGM A Fc fusion protein used as comparison for the fragments

Columns and labels:
Recombinant human BMP-4 [1] = target: B3; experiment: ELISA, 218-284-Fc immobilised, BMP-4 titrated, detection with anti-BMP-4 biotin antibody
Procedure: (§1) The test was conducted according to test method 4, variant B above, with immobilization of the fusion proteins (1 mg/mL).

47-168-Fc (#786) [2] = target: B4; experiment: ELISA, 47-168-Fc immobilised, BMP-2 titrated, detection with anti-BMP-2 biotin antibody
Procedure: as §1

47-168-Fc (#786) [3] = target: B4; experiment: ELISA, 47-168-Fc immobilised, BMP-4 titrated, detection with anti-BMP-4 biotin antibody
Procedure: as §1

Recombinant human BMP-4 [4] = target: B3; experiment: ELISA, BMP-4 coated at 2.5 µg/mL, fragment #786-Fc from 0.5 µg/mL in 1:2 dilutions (triple values), detection anti-human Fc biotin 1:200 and Strep POD 1:5000
Excerpt: The binding of the fusion proteins was detected using anti-human-antibodies.

Recombinant human BMP-4 [5] = target: B3; experiment: ELISA, 266-335-Fc immobilised, BMP-4 titrated, detection with anti-BMP-4 biotin antibody
Procedure: as §1

BMP-2 = target: T1, BMP-2; experiment: In vitro interaction test, variant B: immobilized RGMA-Fc fusion proteins, detection of BMP-2 binding; conditions: Working Example 2, FIG. 4, anti-BMP-2 biotin antibodies
Procedure: (§2) Test Method 4: In Vitro Interaction Test for Determining the Interaction between RGMA and BMP-2 and -4
(§3) The interaction tests were carried out as described below:
(§4) Variant B: Immobilization of Various RGMA-Fc Fusion Proteins and Detection of the Binding of the BMP-2/ or -4 Protein
(§5) Immunoplate Cert. MaxiSorp F96 (Nunc, 439454)
(§6) RGMA-Fc fragments • Volume used: 2.5 μg/mL in Na2CO3; addition: 50 μL per well • 1 hour at 37° C. in damp chamber
(§7) 3. Washing step: • Wash 3× with PBS/0.02% Tween 20
(§8) 4. Blocking: • 3% BSA in PBS/0.02% Tween, 1 hour at 37° C. in damp chamber • Addition : 200 μL per well, incubation: 1 hour at 37° C. in damp chamber
(§9) Recombinant human BMP-2, Catalog No.: 355-BM, Company: R&D Systems; or
(§10) Recombinant human RGM A, R&D Systems; Prod. #2495-RM,
(§11) recombinant human BMP-4, Catalog No.: 314-BM, Company: R&D Systems;
(§12) Concentration in each case: 10 μg/mL
(§13) Dilution steps: in each case 1:2 with PBS/0.02% Tween 20
(§14) 6. Washing step: • Wash 3× with PBS/0.02% Tween 20
(§15) Anti-human BMP-4 biotin antibody; Catalog No.: BAM7572, 1:200 in 1% BSA-PBS-T
(§16) 8. Washing step: • Wash 3× with PBS/0.02% Tween 20
10. Washing step: • Wash 3× with PBS/0.02% Tween 20 […]
(§17) The test was conducted according to test method 4, variant B above, with immobilization of the fusion proteins (1 mg/mL). The binding of BMP-4 and -2 was detected using anti-BMP-4 and anti-BMP-2 biotin antibodies, respectively.

BMP-4 = target: T2, BMP-4; experiment: In vitro interaction test, variant B: immobilized RGMA-Fc fusion proteins, detection of BMP-4 binding
Procedure: as §2, §3, §4, §5, §6, §7, §8, §9, §10, §11, §12, §13, §14, §15, §16
10. Washing step: • Wash 3× with PBS/0.02% Tween 20
ImmunoPure TMB substrate kit; (Pierce, #34021) • Development period: approximately 1-30 minutes • 1:1 mixture of […]; addition: 50 μL per well
12. Stop: • 2.5 M H2SO4; addition: 50 μL per well
The test was conducted according to test method 4, variant B above, with immobilization of the fusion proteins (1 mg/mL). The binding of BMP-4 was detected using anti-BMP-4 biotin antibodies.
as §17

B1: no binding (Recombinant human BMP-4 [1]).

B2: binds (47-168-Fc (#786) [2]).

B3: binds (47-168-Fc (#786) [3]).

For B4, the “EC50 (read off the curve)” value (Recombinant human BMP-4 [4]) was ~5 ng/mL.

B5: no binding (Recombinant human BMP-4 [5]).

B6 was tested, and the “binding of BMP-2” value (BMP-2) was “Significant binding”, the “binding of BMP-4” value (BMP-4; Working Example 1, FIG. 3, anti-BMP-4 biotin antibodies) was “Significant binding” and the “binding of BMP-4” value (BMP-4; Working Example 2, FIG. 4, anti-BMP-4 biotin antibodies) was “Significant binding”.
